Where two headings read alike, the source gives them in different places.
How the values were obtained:
Pho4 [1] = molecular target: T1, Pho4 (S. cerevisiae, UniProt P07270 1-312); assay: STAMMP
T1 sequence: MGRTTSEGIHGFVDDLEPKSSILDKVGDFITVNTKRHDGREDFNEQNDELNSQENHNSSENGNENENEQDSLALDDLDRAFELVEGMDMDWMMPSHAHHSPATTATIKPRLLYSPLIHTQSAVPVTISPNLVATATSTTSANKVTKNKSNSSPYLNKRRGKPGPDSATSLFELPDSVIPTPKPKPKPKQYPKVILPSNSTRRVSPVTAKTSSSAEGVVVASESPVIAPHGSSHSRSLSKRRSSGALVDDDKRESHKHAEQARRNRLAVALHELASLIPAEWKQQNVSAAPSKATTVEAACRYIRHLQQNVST

MAX [2] = molecular target: T2, MAX (Homo sapiens, UniProt P61244 1-160); assay: MITOMI
T2 sequence (P61244 whole entry): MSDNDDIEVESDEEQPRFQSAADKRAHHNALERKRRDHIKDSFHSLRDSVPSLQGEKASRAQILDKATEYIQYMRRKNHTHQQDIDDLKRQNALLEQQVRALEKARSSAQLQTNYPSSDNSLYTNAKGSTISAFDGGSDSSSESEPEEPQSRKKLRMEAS

Pho4 [3] = molecular target: T1, Pho4; assay: MITOMI
MAX [4] = molecular target: T2, MAX; assay: MITOMI; remark: listed apart in the source

B1: Motif + random 1 (dsDNA)
DNA 1: CGCACAGTCACTTAACGTCACGTGACCGGGGTATTTCAGGTCCGGCGGTATGAC
DNA 2: GTCATACCGCCGGACCTGAAATACCCCGGTCACGTGACGTTAAGTGACTGTGCG
B1: binds (Pho4 [1]).

B2: GT/AC 15bp (dsDNA)
DNA 1: CGCCCCAGCACTGCCAAGCCGACGTTAAAACGGGTTGCTTCATCAATCTGTGTGTGTGTGTGTGTCACGTGACACACACACACACACATATCGGCACTTGCGCTTGAGTGCATCGAATAGTTCGGTTTATGAGCGTCCGGCGGTATGAC
DNA 2: GTCATACCGCCGGACGCTCATAAACCGAACTATTCGATGCACTCAAGCGCAAGTGCCGATATGTGTGTGTGTGTGTGTCACGTGACACACACACACACACAGATTGATGAAGCAACCCGTTTTAACGTCGGCTTGGCAGTGCTGGGGCG
B2: binds (MAX [2]).

B3: ATGC/ATGC 60bp (dsDNA)
DNA 1: CGCATGCATGCATGCATGCATGCATGCATGCATGCATGCATGCATGCATGCATGCATGCATGCGTCACGTGACGCATGCATGCATGCATGCATGCATGCATGCATGCATGCATGCATGCATGCATGCATGCATCGTCCGGCGGTATGAC
DNA 2: GTCATACCGCCGGACGATGCATGCATGCATGCATGCATGCATGCATGCATGCATGCATGCATGCATGCATGCATGCGTCACGTGACGCATGCATGCATGCATGCATGCATGCATGCATGCATGCATGCATGCATGCATGCATGCATGCG
B3: binds (Pho4 [3]); binds (MAX [4]).
